Assay results: article PMC3001049
Residue numbers refer to the chain shown, from its start. Read-outs that look alike come from different tables or passages of the source.

B1: damaged duplex Fg/4 (dsDNA)
DNA 1: GTCGTTCGGAAGACCCTGACGTTGCCCAACTTAATCGCCTCGCCATAG
DNA 2: CTATGGCGAGGCGATTAAGTTGGGCAACGTCAGGGTCTTCCGAACGAC
modifications: strand 1 T23 = Flu-dUMP; strand 2 T30 = 5-iodo-dUMP
B2: damaged duplex FI3/N (dsDNA)
DNA 1: B1 DNA 1 with G24A
DNA 2: B1 DNA 2 with C25T
modifications: strand 1 T17 = 5-iodo-dUMP, T22 = Flu-dUMP

Columns and labels:
XPA [1] = biological target: T1, XPA (human, UniProt P23025 1-273); assay: photocrosslinking
T1 sequence (P23025 whole entry): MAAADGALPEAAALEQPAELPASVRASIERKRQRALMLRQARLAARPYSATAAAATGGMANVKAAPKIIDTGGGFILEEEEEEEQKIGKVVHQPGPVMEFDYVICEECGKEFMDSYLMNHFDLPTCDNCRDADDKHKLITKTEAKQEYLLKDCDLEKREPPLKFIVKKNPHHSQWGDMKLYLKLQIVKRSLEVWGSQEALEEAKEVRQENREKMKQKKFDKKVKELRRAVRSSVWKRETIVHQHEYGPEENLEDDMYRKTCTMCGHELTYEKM

XPA [2] = biological target: T1, XPA; assay: photocrosslinking; remark: listed apart in the source

| Binder | binding result (XPA [1]) | binding result (XPA [2]) |
| --- | --- | --- |
| B1 | binds | – |
| B2 | – | binds |
